Assay results: patent publication US8815802 (Novo Nordisk, dated 2014)
Numbered stars: 1 amine (or outer) side, 2 acyl side, 3 side chain; on linkers, the order of the positions; unused ones are H or OH. Square brackets hold non-standard residues; d marks the D form. Side chains are listed from the residue outwards. Ends that are not written are not given here. * marks the point of attachment. Malonyl(2,2-Me2,histaminyl) = CC(C)(C(=O)NCCc1cnc[nH]1)C(=O)*; C20 diacid = O=C(O)CCCCCCCCCCCCCCCCCCC(=O)*; C18 diacid = O=C(O)CCCCCCCCCCCCCCCCC(=O)*; C16 diacid = O=C(O)CCCCCCCCCCCCCCC(=O)*; γGlu = O=C(O)[C@H](CCC(=O)[*:2])N[*:1]; Desaminohistidyl = O=C(CCc1c[nH]cn1)*; Palmitoyl = CCCCCCCCCCCCCCCC(=O)*; Trx = NC[C@H]1CC[C@H](C(=O)O)CC1; AEEA = NCCOCCOCC(=O)O; Aib = CC(C)(N)C(=O)O; Inp = O=C(O)C1CCNCC1

B1: N^8 3H-Imidazol-4-yl-acetyl, N^ε28-[2-(2-{2-[2-(2-{2-[(S)-4-Carboxy-4-(17-carboxyheptadecanoylamino)butyrylamino]ethoxy}ethoxy)acetylamino] … (peptide)
peptide: AEGTFTSDVSSYLEGQAAK([AEEA-AEEA-γGlu-C18 diacid])EFIAHLVQGRG
modifications: not fully specified (N-terminus); printed as N^8 3H-Imidazol-4-yl-acetyl, N^ε28-[2-(2-{2-[2-(2-{2-[(S)-4-Carboxy-4-(17-carboxyheptadecanoylamino)butyrylamino]ethoxy}ethoxy)acetylamino] ethoxy}ethoxy)acetyl][His^31,Gln^34]GLP-1(8-37)-peptide
B2: N^ε28-[2-(2-{2-[2-(2-{2-[(S)-4-Carboxy-4-(17-carboxyheptadecanoylamino)butyrylamino]ethoxy}ethoxy)acetylamino]ethoxy}ethoxy)acetyl][D-Ala^8,His^31,Gln^34]GLP-1( … (peptide)
peptide: H[dA]EGTFTSDVSSYLEGQAAK([AEEA-AEEA-γGlu-C18 diacid])EFIAHLVQGRG
B3: N^ε26-[(4S)-4-carboxy-4-(15-carboxypentadecanoylamino)butanoyl]-[His^31,Gln^34]-GLP-1-(7-37)-peptide (peptide)
peptide: HAEGTFTSDVSSYLEGQAAK([γGlu-C16 diacid])EFIAHLVQGRG
B4: [Aib^8,His^31,Gln^34]GLP-1(7-37)-peptide (peptide)
peptide: HXEGTFTSDVSSYLEGQAAKEFIAHLVQGRG
modifications: Aib8 (GLP-1(7-37) numbering)
notes: unacylated analogue; also called (8Aib, 31H, 34Q)
B5: N^ε26 [(S)-4-Carboxy-4-(2-{2-[2-(2-{2-[2-(17-carboxy-heptadecanoylamino)ethoxy]ethoxy}acetylamino)ethoxy]-ethoxy}acetylamino)butyryl] … (peptide)
peptide: B4 peptide
modifications: Aib8; Lys26 N-epsilon-acylated (side chain as in name); GLP-1(7-37) numbering
B6: N^ε26 [2-(2-(2-{2-[(S)-4-Carboxy-4-(15-carboxypentadecanoylamino)butyrylamino]ethoxy}ethoxy)acetyl][Aib^8,His^31,Gln^34]GLP-1(7-37)-peptide (peptide)
peptide: B4 peptide
modifications: Aib8; Lys26 N-epsilon-acylated (side chain as in name); GLP-1(7-37) numbering
B7: N^ε26[2-(2-{2-[(S)-4-Carboxy-4-(2-{2-[2-(17-carboxy-heptadecanoylamino)ethoxy]ethoxy}acetylamino)butyryl amino]ethoxy}ethoxy)acetyl] … (peptide)
peptide: B4 peptide
modifications: Aib8; Lys26 N-epsilon-acylated (side chain as in name); GLP-1(7-37) numbering
B8: N^ε26-[2-(2-{2-[2-(2-{2-[(S)-4-Carboxy-4-(15-carboxypentadecanoylamino)butyrylamino]ethoxy}ethoxy)acetylamino]ethoxy}ethoxy)acetyl][Aib^8,His^31,Gln^34]GLP-1(7- … (peptide)
peptide: B4 peptide
modifications: Aib8; Lys26 N-epsilon-acylated (side chain as in name); GLP-1(7-37) numbering
B9: N^ε26 [(S)-4-Carboxy-4-(15-carboxypentadecanoylamino)butyryl][Aib^8,His^31,Gln^34]GLP-1(7-37)-peptide (peptide)
peptide: B4 peptide
modifications: Aib8; Lys26 N-epsilon-acylated (side chain as in name); GLP-1(7-37) numbering
B10: N^ε12(2-{2-[2-(2-{2-[2-(17-Carboxy-heptadecanoylamino)ethoxy]ethoxy}acetylamino)ethoxy]ethoxy}acetyl) [Aib^8,Lys^12, … (peptide)
peptide: H[Aib]EGTK([AEEA-AEEA-C18 diacid])TSDVSSYLEEQAAREFIAHLVQGRG
B11: N^ε12-[2-(2-{2-[2-(2-{2-[(S)-4-Carboxy-4-(17-carboxyheptadecanoylamino)butyrylamino]ethoxy}ethoxy)acetylamino]ethoxy}ethoxy)acetyl][Aib^8,Lys^12, … (peptide)
peptide: H[Aib]EGTK([AEEA-AEEA-γGlu-C18 diacid])TSDVSSYLEGQAAKEFIAHLVQGRG
B12: N^ε18[2-(2-{2-[2-(2-{2-[(S)-4-Carboxy-4-(17-carboxyheptadecanoylamino)butyrylamino]ethoxy}ethoxy)acetylamino]ethoxy}ethoxy)acetyl][Aib^8,Lys^18,Glu^22,Arg^26,Hi … (peptide)
peptide: H[Aib]EGTFTSDVSK([AEEA-AEEA-γGlu-C18 diacid])YLEEQAAREFIAHLVQGRG
B13: N^ε24-[2-[2-[2-[[2-[2-[2-[[(4S)-4-carboxy-4-(17-carboxyheptadecanoylamino)butanoyl]amino]ethoxy]ethoxy]acetyl]amino]ethoxy]ethoxy]acetyl]-[Aib^8,Glu^22,Lys^24,A … (peptide)
peptide: H[Aib]EGTFTSDVSSYLEEQK([AEEA-AEEA-γGlu-C18 diacid])AREFIAHLVQGRG
B14: N^ε16-[2-[2-[2-[[2-[2-[2-[[(4S)-4-carboxy-4-(17-carboxyheptadecanoylamino)butanoyl]amino]ethoxy]ethoxy]acetyl]amino]ethoxy]ethoxy]acetyl]-[Aib^8,Lys^16,Glu^22,A … (peptide)
peptide: H[Aib]EGTFTSDK([AEEA-AEEA-γGlu-C18 diacid])SSYLEEQAAREFIAHLVQGRG
B15: N^ε8-18-[2-[2-[2-[[2-[2-[2-[[(4S)-4-carboxy-4-[[1-(19-carboxynonadecanoyl)piperidine-4-carbonyl]amino]butanoyl]amino]ethoxy]ethoxy]acetyl]amino]ethoxy]ethoxy]ac … (peptide)
peptide: H[Aib]EGTFTSDVSK([AEEA-AEEA-γGlu-Inp-C20 diacid])YLEEQAAHEFIAHLVQGRG
B16: N^ε27-[2-[2-[2-[[2-[2-[2-[[(4S)-4-carboxy-4-(17-carboxyheptadecanoylamino)butanoyl]amino]ethoxy]ethoxy]acetyl]amino]ethoxy]ethoxy]acetyl]-[Aib^8,Glu^22,Arg^26,L … (peptide)
peptide: H[Aib]EGTFTSDVSSYLEEQAARK([AEEA-AEEA-γGlu-C18 diacid])FIEHLVQGRP
B17: N^ε12-[2-(2-{2-[2-(2-{2-[(S)-4-Carboxy-4-(17-carboxyheptadecanoylamino)butyrylamino]ethoxy}ethoxy)acetylamino]ethoxy}ethoxy)acetyl][Aib^8,Lys^12, … (peptide)
peptide: H[Aib]EGTK([AEEA-AEEA-γGlu-C18 diacid])TSDVSSYLEEQAAREFIAHLVQGRG
B18: N^ε27-[2-[2-[2-[[2-[2-[2-[[(4S)-4-carboxy-4-(17-carboxyheptadecanoylamino)butanoyl]amino]ethoxy]ethoxy]acetyl]amino]ethoxy]ethoxy]acetyl]-[Aib^8,Ile^25,Arg^26,L … (peptide)
peptide: H[Aib]EGTFTSDVSSYLEGQAIRK([AEEA-AEEA-γGlu-C18 diacid])FIAHLVQGRG
B19: N^ε27-{2-(2-{2-[2-(2-{2-[(S)-4-Carboxy-4-(17-carboxyheptadecanoylamino)butyrylamino]ethoxy}ethoxy)acetylamino]ethoxy}ethoxy)acetyl}-(Aib^8,Arg^26,Lys^27,His^31, … (peptide)
peptide: H[Aib]EGTFTSDVSSYLEGQAARK([AEEA-AEEA-γGlu-C18 diacid])FIAHLVQGRG
B20: N^ε27-{2-(2-{2-[2-(2-{2-[(S)-4-Carboxy-4-(17-carboxyheptadecanoylamino)butyrylamino]ethoxy}ethoxy)acetylamino]ethoxy}ethoxy)acetyl}-(Aib^8,Glu^22,Arg^26,Lys^27, … (peptide)
peptide: H[Aib]EGTFTSDVSSYLEEQAARK([AEEA-AEEA-γGlu-C18 diacid])FIAHLVQGRG
B21: N^ε26-[2-(2-{2-[2-(2-{2-[(S)-4-Carboxy-4-(17-carboxyheptadecanoylamino)butyrylamino]ethoxy}ethoxy)acetylamino]ethoxy}ethoxy)acetyl][His^31,Gln^34]GLP-1-(7-37)-p … (peptide)
peptide: HAEGTFTSDVSSYLEGQAAK([AEEA-AEEA-γGlu-C18 diacid])EFIAHLVQGRG
B22: N^ε26[2-(2-{2-[2-(2-{2-[(S) 4-Carboxy-4-(17-carboxyheptadecanoylamino)butyrylamino]ethoxy}ethoxy)acetylamino]ethoxy}ethoxy)acetyl] [Ser^8,His^31,Gln^34] … (peptide)
peptide: HSEGTFTSDVSSYLEGQAAK([AEEA-AEEA-γGlu-C18 diacid])EFIAHLVQGRG
B23: N^ε2-[2-[2-[2-[[2-[2-[2-[[(4S)-4-carboxy-4-(17-carboxyheptadecanoylamino)butanoyl]amino]ethoxy]ethoxy]acetyl]amino]ethoxy]ethoxy]acetyl]-[Lys^12,Glu^22,Arg^26,H … (peptide)
peptide: HAEGTK([AEEA-AEEA-γGlu-C18 diacid])TSDVSSYLEEQAAREFIAHLVQGRG
B24: N^ε26[2-(2-{2-[2-(2-{2-[(S)-4-Carboxy-4-(17-carboxyheptadecanoylamino)butyrylamino]ethoxy}ethoxy)acetylamino]ethoxy}ethoxy)acetyl}[Gly^8,His^31,Gln^34] … (peptide)
peptide: HGEGTFTSDVSSYLEGQAAK([AEEA-AEEA-γGlu-C18 diacid])EFIAHLVQGRG
B25: N^ε24-[2-[2-[2-[[2-[2-[2-[[(4S)-4-carboxy-4-(17-carboxyheptadecanoylamino)butanoyl]amino]ethoxy]ethoxy]acetyl]amino]ethoxy]ethoxy]acetyl]-[Glu^22,Lys^24,Arg^26, … (peptide)
peptide: HAEGTFTSDVSSYLEEQK([AEEA-AEEA-γGlu-C18 diacid])AREFIAHLVQGRG
B26: N^ε22-[2-[2-[2-[[2-[2-[2-[[(4S)-4-carboxy-4-(17-carboxyheptadecanoylamino)butanoyl]amino]ethoxy]ethoxy]acetyl]amino]ethoxy]ethoxy]acetyl]-[Lys^22,Arg^26,His^31, … (peptide)
peptide: HAEGTFTSDVSSYLEK([AEEA-AEEA-γGlu-C18 diacid])QAAREFIAHLVQGRG
B27: N^ε12-12-[2-[2-[2-[[2-[2-[2-(17-carboxyheptadecanoylamino)ethoxy]ethoxy]acetyl]amino]ethoxy]ethoxy]acetyl]-[Lys^12,Glu^22,Arg^26,His^31,Gln^34]-GLP-1-(7-37)-pep … (peptide)
peptide: HAEGTK([AEEA-AEEA-C18 diacid])TSDVSSYLEEQAAREFIAHLVQGRG
B28: N^9-{2-[2-(1H-Imidazol-4-yl)-ethylcarbamoyl]-2-methyl-propionyl}-N^ε26-[2-(2-{2-[2-(2-{2-[(S)-4-Carboxy-4-(17-carboxyheptadecanoylamino)butyrylamino]ethoxy}etho … (peptide)
peptide: {Malonyl(2,2-Me2,histaminyl)}-EGTFTSDVSSYLEGQAAK([AEEA-AEEA-γGlu-C18 diacid])EFIAHLVQGRG
notes: also called Chem. 37
B29: N^ε26-[(4S)-4-carboxy-4-(hexadecanoylamino)butanoyl]-[His^31,Gln^34]-GLP-1-(7-37)-peptide (peptide)
peptide: HAEGTFTSDVSSYLEGQAAK([γGlu-Palmitoyl])EFIAHLVQGRG
B30: [Imp^7,Glu^22,Arg^26,His^31,Gln^34,Lys^37]-GLP-1-(7-37)-peptide (peptide)
peptide: [Desaminohistidyl]AEGTFTSDVSSYLEEQAAREFIAHLVQGRK
notes: unacylated analogue; also called Chem. 40
B31: N^ε37-[2-[2-[2-[[2-[2-[2-[[(4R)-4-carboxy-4-[[4-[(19-carboxynonadecanoylamino)methyl]cyclohexanecarbonyl]amino]butanoyl]amino]ethoxy]ethoxy]acetyl]amino]ethoxy] … (peptide)
peptide: [Desaminohistidyl]AEGTFTSDVSSYLEEQAAREFIAHLVQGRK([AEEA-AEEA-γ‑D‑Glu-Trx-C20 diacid])

target: T1, human GLP-1 receptor (human, UniProt P43220 24-463); assay: SPA, displacement of 125I-GLP-1(7-36)NH2 from hGLP-1R membranes, 2.0% HSA
T1 construct: whole, on cells; Used as purified plasma membranes of the transfected hamster cell line, not as intact cells; also called hGLP-1
Protocol: (§1) 25 ul (micro liter) of test compounds were added to Optiplate. HSA ("high albumin" experiment containing 2% HSA), or buffer ("low albumin" experiment containing 0.005% HSA), was added (50 ul). 5-10 ug protein/sample was added (50 ul) corresponding to 0.1-0.2 mg protein/ml (to be preferably optimised for each membrane preparation). SPA-particles (Wheatgerm agglutinin SPA beads, Perkin Elmer, #RPNQ0001) were added in an amount of 0.5 mg/well (50 ul). […] The plates were sealed with PlateSealer and incubated for 120 minutes at 30° C. while shaking. The plates were centrifuged (1500 rpm, 10 min) and counted in Topcounter.

| Binder | IC50 |
| --- | --- |
| B1 | ≤ 1000 nM |
| B2 | ≤ 1000 nM |
| B3 | ≤ 1000 nM |
| B4 | ≤ 1000 nM |
| B5 | ≤ 1000 nM |
| B6 | ≤ 1000 nM |
| B7 | ≤ 1000 nM |
| B8 | ≤ 1000 nM |
| B9 | ≤ 1000 nM |
| B10 | ≤ 1000 nM |
| B11 | ≤ 1000 nM |
| B12 | ≤ 1000 nM |
| B13 | ≤ 1000 nM |
| B14 | ≤ 1000 nM |
| B15 | ≤ 1000 nM |
| B16 | ≤ 1000 nM |

| Binder | IC50 |
| --- | --- |
| B17 | ≤ 1000 nM |
| B18 | ≤ 1000 nM |
| B19 | ≤ 1000 nM |
| B20 | ≤ 1000 nM |
| B21 | ≤ 1000 nM |
| B22 | ≤ 1000 nM |
| B23 | ≤ 1000 nM |
| B24 | ≤ 1000 nM |
| B25 | ≤ 1000 nM |
| B26 | ≤ 1000 nM |
| B27 | ≤ 1000 nM |
| B28 | ≤ 1000 nM |
| B29 | ≤ 1000 nM |
| B30 | ≤ 1000 nM |
| B31 | ≤ 1000 nM |

target: T1, human GLP-1 receptor; assay: SPA, displacement of 125I-GLP-1(7-36)NH2 from hGLP-1R membranes, 0.005% HSA
Protocol: as §1

| Binder | IC50 |
| --- | --- |
| B1 | < 600 nM |
| B2 | < 600 nM |
| B3 | < 600 nM |
| B4 | < 600 nM |
| B5 | < 600 nM |
| B6 | < 600 nM |
| B7 | < 600 nM |
| B8 | < 600 nM |
| B9 | < 600 nM |
| B10 | < 600 nM |
| B11 | < 600 nM |
| B12 | < 600 nM |
| B13 | < 600 nM |
| B14 | < 600 nM |
| B15 | < 600 nM |
| B16 | < 600 nM |

| Binder | IC50 |
| --- | --- |
| B17 | < 600 nM |
| B18 | < 600 nM |
| B19 | < 600 nM |
| B20 | < 600 nM |
| B21 | < 600 nM |
| B22 | < 600 nM |
| B23 | < 600 nM |
| B24 | < 600 nM |
| B25 | < 600 nM |
| B26 | < 600 nM |
| B27 | < 600 nM |
| B28 | < 600 nM |
| B29 | < 600 nM |
| B30 | < 600 nM |
| B31 | < 600 nM |
